{"source": "paper PMC4973297", "about": "“Crystal structure of the PAS domain of the hEAG potassium channel” (Acta Crystallographica. Section F, Structural Biology …, 2016)", "biological_target": "the molecule itself", "assay": "SEC; HiLoad 26/60 Superdex 200, 20 mM Tris-HCl pH 7.5, 200 mM NaCl, 5 mM DTT; last step of the purification"}
{"protein": "N-PAS domain of the human EAG channel (residues 1-146) (domain or fragment, UniProt O95259 1-146, looked up, human ether-a-go-go potassium channel (hEAG), N-terminal residues 1-146 holding the PAS domain; amplified from a human cDNA library; calculated mass 16 933.16 Da; The crystal has six molecules per asymmetric unit; Only about residues 27/28 to 135/137 are built in the model; Residues left by PreScission cleavage are not described; also called hEAG N-PAS domain; PAS domain of hEAG; not shown: GST, …) MTMAGGRRGLVAPQNTFLENIVRRSNDTNFVLGNAQIVDWPIVYSNDGFCKLSGYHRAEVMQKSSTCSFMYGELTDKDTIEKVRQTFENYEMNSFEILMYKKNRTPVWFFVKIAPIRNEQDKVVLFLCTFSDITAFKQPIEDDSCK", "values": [{"measurement": "stoichiometry N", "result": 2}]}
